Source: US20230042694A1 (SUZHOU CUREMED BIOMEDICAL TECHNOLOGY, published 2023)

Biological target: KRAS protein (UniProt P01116 1-186, limits assumed)
Experiment: cell-based or functional assay

| Binder | Percentage of KRAS protein level (Western Blot, H358 cells, 6 hours after transfection; protein level of EV29-K19-VHKC as control) |
| --- | --- |
| recombinant polypeptide K19-ASB1 (N-K19 (first polypeptide)-linker peptide-ASB1 (second polypeptide)-C) (other) MDLGKKLLEAARAGQDDEVRILMANGADVNASDRGGGTPLHLAAAGGHLEIVEVLLKRGADVSAADLHGQSPLHLAAMVGHLEIVEVLLKYGADVNAKDTMGATPLHLAARSGHLEIVEELLKNGADMNAQDKFGKTTFDISTDNGNEDLAEILQKLSGSGSGSGVKWESLGPESRGRRKVDPEALQVFKEARSVPRTLLCLCRVAVRRALGKHRLHLIPSLPLPDPIKKFLLHEGS | 39.8% |
| recombinant polypeptide FBW7-K19 (N-FBW7 (second polypeptide)-linker peptide-K19 (first polypeptide)-C) (other) MGGLDYKDDDDKASCVPRSGLILSCICLYCGVLLPVLLPNLPFLTCLSMSTLESVTYLPEKGLYCQRLPSSRTHGGTESLKGKNTENMGFYGTLKMIFYKMKRKLDHGSEVRSFSLGKKPCKVSEYTSTTGLVPCSATPTTFGDLRAANGQGQQRRRITSVQPPTGLQEWLKMFQSWSGPEKLLALDELIDSCEPTQVKHMMQVIEPQFQRDFISLLPKELALYVLSFLEPKDLLQAAQTCRYWRILAEDNLLWREKCKEEGIDEPLHIKRRKVIKPGFIHSPWKSAYIRQHRIDTNWRRGELKSPSGSGSGSGMDLGKKLLEAARAGQDDEVRILMANGADVNASDRGGGTPLHLAAAGGHLEIVEVLLKRGADVSAADLHGQSPLHLAAMVGHLEIVEVLLKYGADVNAKDTMGATPLHLAARSGHLEIVEELLKNGADMNAQDKFGKTTFDISTDNGNEDLAEILQKL | 45.9% |
| recombinant polypeptide CRBN-K19 (N-CRBN (second polypeptide)-linker peptide-K19 (first polypeptide)-C) (other) MGGLDYKDDDDKASAGEGDQQDAAHNMGNHLPLLPAESEEEDEMEVEDQDSKEAKKPNIINFDTSLPTSHTYLGADMEEFHGRTLHDDDSCQVIPVLPQVMMILIPGQTLPLQLFHPQEVSMVRNLIQKDRTFAVLAYSNVQEREAQFGTTAEIYAYREEQDFGIEIVKVKAIGRQRFKVLELRTQSDGIQQAKVQILPECVLPSTMSAVQLESLNKCQIFPSKPVSREDQCSYKWWQKYQKRKFHCANLTSWPRWLYSLYDAETLMDRIKKQLREWDENLKDDSLPSNPIDFSYRVAACLPIDDVLRIQLLKIGSAIQRLRCELDIMNKCTSSGSGSGSGMDLGKKLLEAARAGQDDEVRILMANGADVNASDRGGGTPLHLAAAGGHLEIVEVLLKRGADVSAADLHGQSPLHLAAMVGHLEIVEVLLKYGADVNAKDTMGATPLHLAARSGHLEIVEELLKNGADMNAQDKFGKTTFDISTDNGNEDLAEILQKL | 28.2% |
| recombinant polypeptide DDB2-K19 (N-DDB2 (second polypeptide)-linker peptide-K19 (first polypeptide)-C) (other) MGGLDYKDDDDKASAPKKRPETQKTSEIVLRPRNKRSRSPLELEPEAKKLCAKGSGPSRRCDSDCLWVGLAGPQILPPCRSIVRTLHQHKLGRASWPSVQQGLQQSFLHTLDSYRILQKAAPFDRRASGSGSGSGMDLGKKLLEAARAGQDDEVRILMANGADVNASDRGGGTPLHLAAAGGHLEIVEVLLKRGADVSAADLHGQSPLHLAAMVGHLEIVEVLLKYGADVNAKDTMGATPLHLAARSGHLEIVEELLKNGADMNAQDKFGKTTFDISTDNGNEDLAEILQKL | 52.6% |

Results, then the binder that gave them:

| Percentage of KRAS protein level (Western Blot, H358 cells, 6 hours after transfection; protein level of EV29-K19-VHKC as control) | Binder |
| --- | --- |
| 47.3% | recombinant polypeptide K19-SOCS2 (N-K19 (first polypeptide)-linker peptide-SOCS2 (second polypeptide)-C) (other) MDLGKKLLEAARAGQDDEVRILMANGADVNASDRGGGTPLHLAAAGGHLEIVEVLLKRGADVSAADLHGQSPLHLAAMVGHLEIVEVLLKYGADVNAKDTMGATPLHLAARSGHLEIVEELLKNGADMNAQDKFGKTTFDISTDNGNEDLAEILQKLSGSGSGSGPRNGTVHLYLTKPLYTSAPSLQHLCRLTINKCTGAIWGLPLPTRLKDYLEEYKFQVGS |
| 28.3% | recombinant polypeptide K19-CHIP (N-K19 (first polypeptide)-linker peptide-CHIP (second polypeptide)-C) (other) MDLGKKLLEAARAGQDDEVRILMANGADVNASDRGGGTPLHLAAAGGHLEIVEVLLKRGADVSAADLHGQSPLHLAAMVGHLEIVEVLLKYGADVNAKDTMGATPLHLAARSGHLEIVEELLKNGADMNAQDKFGKTTFDISTDNGNEDLAEILQKLSGSGSGSGRLNFGDDIPSALRIAKKKRWNSIEERRIHQESELHSYLSRLIAAERERELEECQRNHEGDEDDSHVRAQQACIEAKHDKYMADMDELFSQVDEKRKKRDIPDYLCGKISFELMREPCITPSGITYDRKDIEEHLQRVGHFDPVTRSPLTQEQLIPNLAMKEVIDAFISENGWVEDYGS |
| 22.4% | recombinant polypeptide K19-SPOP (N-K19 (first polypeptide)-linker peptide-SPOP (second polypeptide)-C) (other) MDLGKKLLEAARAGQDDEVRILMANGADVNASDRGGGTPLHLAAAGGHLEIVEVLLKRGADVSAADLHGQSPLHLAAMVGHLEIVEVLLKYGADVNAKDTMGATPLHLAARSGHLEIVEELLKNGADMNAQDKFGKTTFDISTDNGNEDLAEILQKLGSGSGSGSVNISGQNTMNMVKVPECRLADELGGLWENSRFTDCCLCVAGQEFQAHKAILAARSPVFSAMFEHEMEESKKNRVEINDVEPEVFKEMMCFIYTGKAPNLDKMADDLLAAADKYALERLKVMCEDALCSNLSVENAAEILILADLHSADQLKTQAVDFINYHASDVLETSGWKSMVVSHPHLVAEAYRSLASAQCPFLGPPRKRLKQS |
| 19.3% | recombinant polypeptide βTrCP-K19 (N-βTrCP (second polypeptide)-linker peptide-K19 (first polypeptide)-C) (other) MGGLDYKDDDDKASDPAEAVLQEKALKFMNSSEREDCNNGEPPRKIIPEKNSLRQTYNSCARLCLNQETVCLASTAMKTENCVAKTKLANGTSSMIVPKQRKLSASYEKEKELCVKYFEQWSESDQVEFVEHLISQMCHYQHGHINSYLKPMLQRDFITALPARGLDHIAENILSYLDAKSLCAAELVCKEWYRVTSDGMLWKKLIERMVRTDSLWRGLAERRGWGQYLFKNKPPDGNAPPNSFYRALYPKIIQDIETIESNWRCGRHSLQRIHCRSGSGSGSGMDLGKKLLEAARAGQDDEVRILMANGADVNASDRGGGTPLHLAAAGGHLEIVEVLLKRGADVSAADLHGQSPLHLAAMVGHLEIVEVLLKYGADVNAKDTMGATPLHLAARSGHLEIVEELLKNGADMNAQDKFGKTTFDISTDNGNEDLAEILQKL |
| 20.4% | recombinant polypeptide SKP2-K19 (N-SKP2 (second polypeptide)-linker peptide-K19 (first polypeptide)-C) (other) MGGLDYKDDDDKASHRKHLQEIPDLSSNVATSFTWGWDSSKTSELLSGMGVSALEKEEPDSENIPQELLSNLGHPESPPRKRLKSKGSDKDFVIVRRPKLNRENFPGVSWDSLPDELLLGIFSCLCLPELLKVSGVCKRWYRLASDESLWQTLDLTGKNLSGSGSGSGMDLGKKLLEAARAGQDDEVRILMANGADVNASDRGGGTPLHLAAAGGHLEIVEVLLKRGADVSAADLHGQSPLHLAAMVGHLEIVEVLLKYGADVNAKDTMGATPLHLAARSGHLEIVEELLKNGADMNAQDKFGKTTFDISTDNGNEDLAEILQKL |
